Drawing on paper PMC12111007, “Potential of Hyperthermophilic L-Asparaginase from Thermococcus sibiricus to Mitigate Dietary Acrylamide Assessed Using a Simplified Food System” (Foods, 2025), this text covers Km for 1 protein.

The Km is the substrate concentration at which the rate is half of its maximum.

Substrate in this data set: NC(=O)C[C@H](N)C(=O)O
Kind of data set: direct Nesslerization (ammonia release). Format: biochemical, Thermococcus sibiricus. The following applies: 90 °C, substrate not named beside the constant, taken as L-asparagine, pH not stated for the kinetics.

B1: TsAI (hyperthermophilic L-asparaginase from Thermococcus sibiricus) (Thermococcus sibiricus MM 739) (protein)
chain: MKKLLIIGTGGTIASAKTEQGYKSVLKIDEILKLAKIKLENGYKIDSTNIMNIDSTLIHPEDWEIIAKEVFKALDDYDGIIITHGTDTLAYTASMLSFMIKNPNKPIVLTGSMLPITENGSDAPRNIRTAIKFAMEDVAGVFVAFMDKIMLGCRTSKVRTLGLNAFMSINYPDVAYVKGEKILYNIPKEKFQPNGSPELDTKYEPRVVVLRVTPGLGGEIIDAVLDAGYKGIVLEGYGAGGLPYRKSNLLSKIKEITPKIPVIMTTQALYDGVDMRKYEVGRKALETGIIPAKDMTKEATITKLMWALGHTKDVEKIREIMHTNYVNEIKS
Regarding B1, the Km came to 3.8 mM.
